The test system of this series is thebaine. The series can be described thus: Demethylation of thebaine by new cytochrome P450 fungal and plant homologs co-expressed with CPRs in S. cerevisiae. Particulars: 0.5 mM thebaine, SC or DELFT media pH 7, 72 h; for Northebaine production: 30° C., co-expressed with Cel_CPR_co, Tp_CPR_5866, Tp_CPR_DN10898 or POR1.

B1: CYPDN8: cytochrome P450 homolog A0A0C7AZL4 from Rhizopus microsporus, codon-optimized (protein, listed as Rhizopus microsporus)
chain: MDHLIQVYNSSTQVLIPVLQKRSKASYITAAIALIIAQRLYSYFRVPKHLRGFPKLPYFGIAKSFFAKESPRERVKKYILPIINERDGFYISNIPFGWMLYVTNPIAAKQILLKSNGFPKNHGLLEDMGENLFIEFIGKDNVVLTNGDTWKRQRKVMNPAFHHSLPIKTMSNVVFSLISVIDQANGTVPVASTMQNFTLDTLGLAIFGFDFKALQGDGDEWTKTYRLVSDCLFDPIINVFSSYSFIFDRIYPRRRRGAMATRKLGEKFLEIAQQKRMEIKSGAFADVPDNEKDLLTLMLEAEEKGDVWTSEDELRHNIAVLFLAGHDTTAHALSFCFYHLAKNKDIQQKLRKEVLDLLGDEPVDVVPTVEQLKDMQYLNMVIKENLRMNSPADMLFSRDVQEDIVLANTFIPKGTVISINIEALHCNPKLWHNPDQFDPERFAPGGEHEQHEGMTWLPFSNGTRQCLGMNFSLFEQRLVIAMILKKYEISIPEDSIHRNHIINDMPFNVAPKSLELTFTKRY
modifications: codon-optimized
On to B1, for which the “O-demethylation activity compared to the positive control Ps_CODM_co” value is given as “substantially higher”; the “O-demethylation activity, converting thebaine to oripavine” value is “display 0-demethylation activity”; the “nororipavine production in the presence of thebaine” value is recorded as “detected”; the Northebaine production entry is listed as “+”.

B2: CYPDN9: cytochrome P450 homolog A0A1X2HQ99 from Syncephalastrum racemosum, codon-optimized (protein, listed as Syncephalastrum racemosum)
chain: MFRPPAGLPKLPIINYFRLLWALYRKESPTRRSQRLILPALQKHNAKAYLAKVPYTWTVYLVDPVAVKTFLMRNGTFPKTMESIDAFDQSHPNVQFWGRENLGFSVGDSWKRQRKIIFPAFRRAMPVQLFGELVPKMFDLIDKEHSTIAIDLMQRFTLDALGLAAFSFDFHALDNHNNEWEVAYEMIRKELVSPLTNMLARYDYILKYIIPGRAEKQAAVSKINHLLSDIANERRKMIKRNPDMLKVPDSEKDLLTLMLESDLENSDDPASEELIRANLATFFLAGHDTTANTLSFWLYHLAMYKDIQKKAREEVIETMGGAPEDIVPTAEQLKKMKYMDCIIKENLRFMGPALELFPRIAKEDYNLNGIFIPKGTRVSVDLHTLHHHPDVWKEPERFDPLRFVENGEHSKHEGLSWIAFSSGARVCIGQNFSLVEQRVVMSMLLRRYEWDIPEDSIHREGLQLKDTNNQAPRSLEIVFKKRY
modifications: codon-optimized
As to B2, the Northebaine production entry is “−”.

B3: CYPDN17: cytochrome P450 homolog A0A2G4SQ34 from Rhizopus microsporus, codon-optimized (protein, listed as Rhizopus microsporus)
chain: MDHLIQVYNSSTQVLIPVLQKRSKASYITAAIALIIAQRLYSYFRVPKHLRGFPKLPYFGIAKSLLTRESPRERVKKYVLPIIDENDGFYISKIPFGWMLYIANPVAAKQLLLKSSGFPKNHGLLDNMGENLFVEFIGKDNVALSNGDTWKRQRKVMNPAFHHSLPIKTMSKVVFSLISAIEQANGTIPVASAMQNFTLDTLGLAIFGFDFKALQGDPDEWTKTYRFVSDCIFDPVINVFSSYSFIIDRIYPRRRRGAIATKKLSEKFLKIAQQKRKEIKSGAYADVPDNEKDLLTLMLEAEEKGDTWTSEDELRHNIAILFVAGHDTTAHALSFCFYHLAKNKDVQQKLRKEVLSILGDKPVDVVPTVEQLKNMQYLNMVIKENLRINSPADMLFSRDVKEDTILANTLIPKGTVVTINIEALHYNPRLWHNPDQFDPERFAPGGEHEKHEGMTWLPFSNGTRQCLGMNFSLFEQRLVIAMILKKYEISIPEDSIHRDHIVSDIPFNGAPKSLKLTFTKRH
On to B3, for which the “O-demethylation activity compared to the positive control Ps_CODM_co” value was “substantially higher”; the “O-demethylation activity, converting thebaine to oripavine” value was “display 0-demethylation activity”; the “nororipavine production in the presence of thebaine” value was “detected”; the Northebaine production entry was “+”.

(Values after patent US11781164B2, “Demethylation of reticuline and derivatives thereof with fungal cytochrome P450” (priority 2017, dated 2023).)
